Results on nine molecules are retold here after patent US20250376519A1 (JIANGSU HENGRUI PHARMACEUTICALS, published 2025).

Positions count from the first letter of the chain named.

B1: hu6L2H5 (antibody, human IgG1, kappa, V domains shown)
VH: EVQLVQSGSELKKPGASVKVSCKASGYTFTDYYMNWVRQAPGQGLEWMGIINPYSGVTIYNHKFKGRFVLSVDKSVSTAYLQISSLKAEDTAVYYCARQDSLLDYAMDYWGQGTTVTVSS
VL: DIQMTQSPSSLSASVGDRVTITCHASQGISGNMGWLQQKPGKAPKGLIYHGANLEDGVPSRFSGSGSGADYTLTISSLQPEDFATYYCVQYAQFPYTFGGGTKVEIKR
B2: hu6L2H7 (antibody, human IgG1, kappa, V domains shown)
VH: EVQLVESGGGLVQPGGSLKLSCAASGYTFTDYYMNWVRQASGKGLEWVGIINPYSGVTIYNHKFKGRFTLSVDKSKNTAYLQMNSLKTEDTAVYYCARQDSLLDYAMDYWGQGTTVTVSS
VL: B1 VL
B3: hu6L4H11 (antibody, human IgG1, kappa, V domains shown)
VH: B1 VH with R38K, V76S, S77N
VL: B1 VL with T85D
B4: hu6L4H12 (antibody, human IgG1, kappa, V domains shown)
VH: B1 VH with V69A, V76S, S77N
VL: B1 VL with T85D
B5: hu6L4H13 (antibody, human IgG1, kappa, V domains shown)
VH: B1 VH with R38K, V69A, V76S, S77N
VL: B1 VL with T85D
notes: also called hu6L4VH13
B6: hu6L2H13 (antibody, human IgG1, kappa, V domains shown)
VH: B1 VH with R38K, V69A, V76S, S77N
VL: B1 VL
B7: hu6L2H11 (antibody, human IgG1, kappa, V domains shown)
VH: B1 VH with R38K, V76S, S77N
VL: B1 VL
B8: hu98L2H2 (antibody, human IgG1, kappa, V domains shown)
VH: EVQLVESGGGLVQPGGSLRLSCAASGFTFSDYGIHWVRQAPGKGLEWVAYISSGGYTIYYADTVKGRFTISRDNAKNSLYLQMNSLRAEDTAVYYCARGDYEDIFYTMDYWGQGTTVTVSS
VL: DIQMTQSPSSLSASVGDRVTITCRASRDITKFLNWYQQKPGKAVKLLIYYTSRLHSGVPSRFSGSGSGTDYTLTISSLQPEDFATYYCQQGNTLPWTFGGGTKVEIKR
B9: hu98L1H1 (antibody, human IgG1, kappa, V domains shown)
VH: B8 VH with E102D
VL: B8 VL with V44P, Y71F

The target of the first assay is T1, human DLL3 on cells (human, UniProt Q9NYJ7 27-618).
T1 construct: Endogenous on H1184 and SHP77; Cell line is named under assay; also called H1184; DLL3/H82
T1 sequence: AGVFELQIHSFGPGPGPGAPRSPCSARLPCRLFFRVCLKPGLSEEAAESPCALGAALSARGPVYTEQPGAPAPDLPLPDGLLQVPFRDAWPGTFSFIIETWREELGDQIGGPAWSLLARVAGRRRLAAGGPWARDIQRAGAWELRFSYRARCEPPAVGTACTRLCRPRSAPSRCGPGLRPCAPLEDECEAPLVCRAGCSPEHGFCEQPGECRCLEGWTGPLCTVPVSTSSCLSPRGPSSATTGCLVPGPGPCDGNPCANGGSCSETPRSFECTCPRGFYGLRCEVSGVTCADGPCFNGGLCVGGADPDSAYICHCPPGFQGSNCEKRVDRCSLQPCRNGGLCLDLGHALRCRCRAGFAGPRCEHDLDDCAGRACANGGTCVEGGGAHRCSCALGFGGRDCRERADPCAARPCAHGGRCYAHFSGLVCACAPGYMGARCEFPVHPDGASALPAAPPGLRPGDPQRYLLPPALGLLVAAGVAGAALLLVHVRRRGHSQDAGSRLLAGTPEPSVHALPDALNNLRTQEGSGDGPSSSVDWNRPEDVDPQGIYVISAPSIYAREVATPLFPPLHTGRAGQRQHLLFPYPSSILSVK
Put plainly: flow cytometry, H1184 cells. How it is done: The plates were centrifuged at 300 g for 5 min, and the supernatant was removed. Different concentrations of test antibodies were added at 100 μL/well. The plates were incubated in the dark in a refrigerator at 4° C. for 1 h. After 3 centrifugal washes at 300 g, working concentrations of APC anti-human IgG Fc (BioLegend, 410712) or PE F(ab′)2-goat anti-human IgG (invitrogen, H10104) were added. The plates were incubated in the dark in a refrigerator at 4° C. for 40 min. After 3 centrifugal washes at 300 g, the geometric mean fluorescence intensity was measured on an Invitrogen flow cytometer, and the EC50 values for the binding of the antibodies to DLL3-expressing cells were calculated.
As usually defined, the EC50 is the concentration at which the effect is half-maximal. Regarding B1, a half-maximal response (EC50) required 0.06 nM and the Emax worked out at 2490.
With B2, it took 0.07 nM to reach a half-maximal effect (EC50) and the Emax was determined as 2200.
For B3, in that order: 0.07 nM and 2190.
For B4 the same measures were 0.05 nM and 2130.
The molecule B5 showed an EC50 of 0.09 nM and an Emax of 2120.
For B6, in that order: 0.1 nM and 2100.
On to B7, for which the concentration giving a half-maximal response (EC50) was 0.04 nM and the Emax came to 1960.
On to B8, for which the Emax was 2310.
On the same count and under the same terms, then B9, with 2820.

For the next assay, the target named is T2, human DLL3 (ACRO, DLL3-H52H4) (human, UniProt Q9NYJ7 27-492).
T2 construct: Bought
T2 sequence: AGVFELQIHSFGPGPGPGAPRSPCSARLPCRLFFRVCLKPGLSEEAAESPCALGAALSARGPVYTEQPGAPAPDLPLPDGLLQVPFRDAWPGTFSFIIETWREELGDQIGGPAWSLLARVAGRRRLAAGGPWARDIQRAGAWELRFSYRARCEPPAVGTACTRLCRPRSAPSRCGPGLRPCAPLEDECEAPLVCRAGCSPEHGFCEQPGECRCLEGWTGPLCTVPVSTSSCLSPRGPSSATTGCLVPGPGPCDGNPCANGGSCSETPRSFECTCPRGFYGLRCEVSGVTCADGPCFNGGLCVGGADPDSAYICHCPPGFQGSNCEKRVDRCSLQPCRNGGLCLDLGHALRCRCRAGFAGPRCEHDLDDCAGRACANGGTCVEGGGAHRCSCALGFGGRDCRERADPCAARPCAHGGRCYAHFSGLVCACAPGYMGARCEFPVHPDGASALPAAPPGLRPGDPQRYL
Nature of the assay: SPR Biacore 8K, Ab captured on Protein A. The procedure, abridged:
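Antibodies captured on a Protein A chip for 18 s; DLL3 or CD3D&3E antigen flowed 180 s, then 600 s dissociation, with real-time detection. Regeneration used 10 mM glycine-HCl pH 1.5 between cycles. Kinetics were obtained by 1:1 model fitting.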
One may read the Kd as the concentration at which binding is half-saturated. Low values mean tighter binding, high ones weaker binding. For orientation: koff means the first-order rate constant of dissociation. Low readings indicate a long-lived complex, high ones a short-lived complex. A word on the kon: it is the second-order rate constant of association. High values mean fast association, low ones slow association. B1 displayed a Kd of 0.969 nM, a koff of 0.000784 s⁻¹ and an on-rate (kon) of 810000 M⁻¹ s⁻¹.
For B2, in that order: 3.06 nM, 0.00205 s⁻¹ and 670000 M⁻¹ s⁻¹.
For B3, in that order: 0.314 nM, 0.000672 s⁻¹ and 2.14e+06 M⁻¹ s⁻¹.
On to B4, for which binding was characterised by a dissociation constant (Kd) of 0.391 nM, the off-rate constant (koff) was found to be 0.000805 s⁻¹ and the association rate constant (kon) was determined as 2.06e+06 M⁻¹ s⁻¹.
For B5 the same measures were 0.322 nM, 0.000695 s⁻¹ and 2.16e+06 M⁻¹ s⁻¹.
For B6 the same measures were 0.382 nM, 0.000803 s⁻¹ and 2.1e+06 M⁻¹ s⁻¹.
In turn, B7 showed a dissociation constant (Kd) of 0.363 nM, a koff of 0.000749 s⁻¹ and a kon of 2.06e+06 M⁻¹ s⁻¹.
As to B8, the Kd amounted to 0.55 nM, the koff is 0.000668 s⁻¹ and the association rate constant (kon) worked out at 1.22e+06 M⁻¹ s⁻¹.
For B9 the same measures were 1.1 nM, 0.00171 s⁻¹ and 1.55e+06 M⁻¹ s⁻¹.
